Measurements published in publication PMC4330390 (Nucleic Acids Research, 2015).

Tests used:
[1] = tested on: NXF1ΔNΔUBA+3A;NXT1 (p15) (Homo sapiens;Homo sapiens); assay: ITC
[2] = target: the molecule itself; assay: crystal structure; crystals of the purified NXF1^ΔNΔUBA:NXT1 complex, 18°C, 9% PEG 6000, 1 M LiCl, 0.1 M Na citrate pH 5.1; P1, 3.4 Å, two copies of the complex in the asymmetric unit

full-length CTE-RNA was tested, and the binding signal (fold weaker than wild type) [1] was 2.5.

B1: NXF1^ΔNΔUBA:NXT1 complex (complex, human)
chain 1: VRRDRAPPERGGAGTSQDGTSKNWFKITIPYGRKYDKAWLLSMIQSKCSVPFTPIEFHYENTRAQFFVEDASTASALKAVNYKILDRENRRISIIINSSAPPHTILNELKPEQVEQLKLIMSKRYDGSQQALDLKGLRSDPDLVAQNIDVVLNRRSCMAATLRIIEENIPELLSLNLSNNRLYRLDDMSSIVQKAPNLKILNLSGNELKSERELDKIKGLKLEELWLDGNSLCDTFRDQSTYISAIRERFPKLLRLDGHELPPPIAFDVEAPTTLPPCKGSYFGTENLKSLVLHFLQQYYAIYDSGDRQGLLDAYHDGACCSLSIPFIPQNPARSSLAEYFKDSRNVKKLKDPTLRFRLLKHTRLNVVAFLNELPKTQHDVNSFVVDISAQTSTLLCFSVNGVFKEVDGKSRDSLRAFTRTFIAVPASNSGLCIVNDELFVRNASSEEIQRAFAMPAPTP
chain 2: ASVDFKTYVDQACRAAEEFVNVYYTTMDKRRRLLSRLYMGTATLVWNGNAVSGQESLSEFFEMLPSSEFQISVVDCQPVHDEATPSQTTVLVVICGSVKFEGNKQRDFNQNFILTAQASPSNTVWKIASDCFRFQDWAS
notes: also called NXF1:NXT1; TAP:p15
With B1 the “stoichiometry N” value [2] was 2.
